# Changes are numbered by the printed parent chain. Names may count otherwise.
# B1: I283T-N285P-N287T-Q290E-S322T-N388M-K394R-C430A-i431aN-L432F-L434W-S436N-dG462 (protein)
# chain: MFLKSLREQINLLKRQGDLRIINRPVDSYLEAAAIIRRSTETKAPVPLMTNIKGYPGCSIVGGLAALSSNPEYPLSRVAMSLGLSTTASAQSIVQYLIDGLKKTPYLPVEIDSNSAPCKQNILRGEDASLAHFPIPQVHQHDGNRYVNTWGVFIVESPDGQWCNWSIQRVQYLNDRQMIALVFPSQHISDIWEEWVKIGKPMPYALVQGCEPIVPYIAGLPLLERNVNEAEYIGALYGKGIEVVKCETHDLRVPASSEVVIEGYFAITREGVEGPFGEFAGYTPPETSLEPILSITAISWQDDPIWPVVAEGKPVDEYHTCTGIGDAAAIQNVLLTANLPVSFVWVPLYSACHLMIVSINRHWRQTHPDLTSEQLTKKVGDVIHQTRMSIKLPRIVVLDDDVDPADTESLLWALATRIHPERKRYFYESAIFPWLNCYSEEERHNRKGKRVIIDALLPENHGAISSFDYAYPDDIKQRVLMHWETDFSHD
# B2: L223Y-I283T-N285P-N287T-Q290E-S322T-N388M-K394R-C430A-L432F-L434W-S436N-C437L-dG462 (protein)
# chain: B1 chain with L223Y, C437L
# B3: H141C-I283T-N285P-N287T-Q290E-S322T-N388M-S389H-K394R-C430A-i430aG-L432F-L434W-S436N-dG462 (protein)
# chain: B1 chain with H141C, S389H
# B4: L223Y-I283T-N285P-N287T-Q290E-S322T-N388M-K394R-K423G-C430A-L432F-L434W-S436N-i448aS-dG462 (protein)
# chain: B1 chain with L223Y, K423G
# B5: L223Y-I283T-N285P-N287T-Q290E-S322T-N388M-K394R-C430A-i430aG-L432F-L434W-S436N-C437L-dG462 (protein)
# chain: B1 chain with L223Y, C437L
# B6: I283T-N285P-N287T-Q290E-S322T-N388M-K394R-C430A-L432F-L434W-S436N-i449aS-dG462 (protein)
# chain: B1 chain
# B7: I283T-N285P-N287T-Q290E-S322T-N388M-S389H-K394R-C430A-i430aG-L432F-L434W-S436N-dG462 (protein)
# chain: B1 chain with S389H
# B8: L223Y-I283T-N285P-N287T-Q290E-S322T-N388M-K394R-i429aN-C430A-L432F-L434W-S436N-dG462 (protein)
# chain: B1 chain with L223Y
# B9: I283T-N285P-N287T-Q290E-S322T-N388M-K394R-E421F-C430A-i430aG-L432F-L434W-S436N-dG462 (protein)
# chain: B1 chain with E421F
# B10: I283T-N285P-N287T-Q290E-S322T-I330V-N388M-S389H-K394R-C430A-i430aG-L432F-L434W-S436N-dG462 (protein)
# chain: B1 chain with I330V, S389H
# B11: E224P-I283T-N285P-N287T-Q290E-S322T-N388M-K394R-C430A-i430aG-L432F-L434W-S436N-dG462 (protein)
# chain: B1 chain with E224P
# B12: L222V-I283T-N285P-N287T-Q290E-S322T-N388M-K394R-C430A-i430aG-L432F-L434W-S436N-dG462 (protein)
# chain: B1 chain with L222V
# B13: I283T-N285P-N287T-Q290E-S322T-N388M-K394R-E421F-C430A-i430aN-L432F-L434W-S436N-dG462 (protein)
# chain: B1 chain with E421F
# B14: L223Y-I283T-N285P-N287T-Q290E-S322T-N388M-K394R-C430A-i430aG-L432F-L434W-S436N-dG462 (protein)
# chain: B1 chain with L223Y
# B15: L222V-E224P-I283T-N285P-N287T-Q290E-S322T-N388M-K394R-C430A-i430aG-L432F-L434W-S436N-dG462 (protein)
# chain: B1 chain with L222V, E224P
# B16: L223Y-I283T-N285P-N287T-Q290E-S322T-N388M-K394R-E421F-C430A-L432F-L434W-S436N-dG462 (protein)
# chain: B1 chain with L223Y, E421F
# B17: I283T-N285P-N287T-Q290E-S322T-N388M-K394R-C430A-i430aG-L432F-L434W-S436N-V451S-dG462 (protein)
# chain: B1 chain with V451S
# B18: H141C-I283T-N285P-N287T-Q290E-S322T-I330V-N388M-S389H-K394R-C430A-i430aG-L432F-L434W-S436N-dG462 (protein)
# chain: B1 chain with H141C, I330V, S389H
# B19: I283T-N285P-N287T-Q290E-S322T-N388M-K394R-E421F-C430A-i430aL-L432F-L434W-S436N-dG462 (protein)
# chain: B1 chain with E421F
# B20: L223Y-I283T-N285P-N287T-Q290E-S322T-N388M-K394R-C430A-i430aN-L432F-L434W-S436N-dG462 (protein)
# chain: B1 chain with L223Y
# B21: I283T-N285P-N287T-Q290E-S322T-I330V-N388M-K394R-C430A-i430aG-L432F-L434W-S436N-dG462 (protein)
# chain: B1 chain with I330V
# B22: I283T-N285P-N287T-Q290E-S322T-N388M-K394R-C430A-i430aG-L432F-L434W-S436N-C437L-dG462 (protein)
# chain: B1 chain with C437L
# B23: I283T-N285P-N287T-Q290E-S322T-N388M-K394R-E421F-C430A-L432F-L434W-S436N-i448aS-dG462 (protein)
# chain: B1 chain with E421F
# B24: I283T-N285P-N287T-Q290E-S322T-I330V-N388M-S389H-K394R-C430A-i430aG-L432F-L434W-S436N-V451S-dG462 (protein)
# chain: B1 chain with I330V, S389H, V451S
# B25: L223Y-I283T-N285P-N287T-Q290E-S322T-N388M-K394R-K423G-C430A-i430aN-L432F-L434W-S436N-dG462 (protein)
# chain: B1 chain with L223Y, K423G
# B26: H141C-I283T-N285P-N287T-Q290E-S322T-N388M-K394R-C430A-i430aG-L432F-L434W-S436N-dG462 (protein)
# chain: B1 chain with H141C
# B27: L223Y-I283T-N285P-N287T-Q290E-S322T-N388M-K394R-K423G-C430A-i430aL-L432F-L434W-S436N-dG462 (protein)
# chain: B1 chain with L223Y, K423G
# B28: L223Y-I283T-N285P-N287T-Q290E-S322T-N388M-K394R-C430A-i430aL-L432F-L434W-S436N-dG462 (protein)
# chain: B1 chain with L223Y
# B29: L223Y-I283T-N285P-N287T-Q290E-S322T-N388M-K394R-K423G-C430A-i430aG-L432F-L434W-S436N-dG462 (protein)
# chain: B1 chain with L223Y, K423G
# B30: L223Y-I283T-N285P-N287T-Q290E-S322T-N388M-K394R-E421F-K423G-C430A-L432F-L434W-S436N-dG462 (protein)
# chain: B1 chain with L223Y, E421F, K423G
# System: 3-methylcrotonic acid
# Format: biochemical, Yersinia frederiksenii
# Set-up: key: “+” representing a low increase in activity; “++++” representing a high increase in activity
row,Molecule,Activity relative to WT
1,B1,++++
2,B2,++++
3,B3,++++
4,B4,++++
5,B5,++++
6,B6,++++
7,B7,++++
8,B8,++++
9,B9,++++
10,B10,++++
11,B11,++++
12,B12,++++
13,B13,++++
14,B14,++++
15,B15,++++
16,B16,++++
17,B17,++++
18,B18,++++
19,B19,++++
20,B20,++++
21,B21,++++
22,B22,++++
23,B23,++++
24,B24,++++
25,B25,++++
26,B26,++++
27,B27,++++
28,B28,++++
29,B29,++++
30,B30,++++
